Data taken from publication PMC2783380.

Molecular target: APOBEC3G (human), Q9HC16
Experiment: AUC
Settings: remark: other sources report otherwise

B1: APOBEC3G, Q9HC16 1-384 (enzyme)
chain: MKPHFRNTVERMYRDTFSYNFYNRPILSRRNTVWLCYEVKTKGPSRPPLDAKIFRGQVYSELKYHPEMRFFHWFSKWRKLHRDQEYEVTWYISWSPCTKCTRDMATFLAEDPKVTLTIFVARLYYFWDPDYQEALRSLCQKRDGPRATMKIMNYDEFQHCWSKFVYSQRELFEPWNNLPKYYILLHIMLGEILRHSMDPPTFTFNFNNEPWVRGRHETYLCYEVERMHNDTWVLLNQRRGFLCNQAPHKHGFLEGRHAELCFLDVIPFWKLDLDQDYRVTCFTSWSPCFSCAQEMAKFISKNKHVSLCIFTARIYDDQGRCQEGLRTLAEAGAKISIMTYSEFKHCWDTFVDHQGCPFQPWDGLDEHSQDLSGRLRAILQNQEN
- stoichiometry N: 4
